The Human Domainome abundance scans (Beltran et al. 2025)
± gives the uncertainty stated by the source.

B1: Cell division cycle and apoptosis regulator protein 1, residues 625 to 674; numbered along this chain, Q8IX12 (parent)
chain: ISTPTHWSKLDPKTMKVNDLRKELESRALSSKGLKSQLIARLTKQLKVEE

Variants of: B1
Experiment: abundance fitness (aPCA) (normalised: wild type 0, dead -1); higher = more abundant; growth selection in yeast, the domain comes from the species named
Details: Homo sapiens

Row | Variant | abundance fitness
1 | L20S | -0.859 ± 0.058
2 | K44M | -0.355 ± 0.058
3 | R21D | -1 ± 0.17
4 | L20V | -0.284 ± 0.039
5 | S2D | 0.064 ± 0.038
6 | L38N | -0.666 ± 0.086
7 | S8D | -0.126 ± 0.043
8 | S31W | -0.097 ± 0.029
9 | P12M | -0.141 ± 0.059
10 | S31F | -0.101 ± 0.053
11 | K32W | -0.089 ± 0.049
12 | P12H | -0.865 ± 0.049
13 | E23C | -0.677 ± 0.065
14 | L46M | -0.023 ± 0.055
15 | L42E | -0.547 ± 0.053
16 | I39V | 0.022 ± 0.046
17 | L20E | -0.788 ± 0.052
18 | A28S | 0.138 ± 0.031
19 | T3Q | -0.197 ± 0.057
20 | H6G | -0.132 ± 0.042
21 | Q45S | -0.144 ± 0.04
22 | L24Y | -1.01 ± 0.19
23 | K16L | -0.061 ± 0.053
24 | L20C | -0.416 ± 0.077

Row | Variant | abundance fitness
25 | N18V | 0.05 ± 0.027
26 | S8F | -0.338 ± 0.034
27 | D19I | -0.044 ± 0.034
28 | S2H | -0.037 ± 0.047
29 | K13I | -0.052 ± 0.06
30 | T43C | -0.071 ± 0.042
31 | D19F | -0.035 ± 0.043
32 | D11V | -0.038 ± 0.042
33 | T3A | -0.203 ± 0.037
34 | E23Q | -0.228 ± 0.06
35 | S31V | -0.041 ± 0.041
36 | T3W | -0.252 ± 0.049
37 | Q37H | -0.455 ± 0.11
38 | I39F | -0.518 ± 0.093
39 | S2G | -0.003 ± 0.031
40 | K16Y | -0.153 ± 0.051
41 | S8A | -0.081 ± 0.043
42 | P4E | -0.052 ± 0.04
43 | E25R | -0.154 ± 0.043
44 | E25M | -0.076 ± 0.044
45 | E50T | -0.535 ± 0.26
46 | K47Y | -0.261 ± 0.057
47 | A28R | 0.151 ± 0.029
48 | K16T | -0.142 ± 0.056

Row | Variant | abundance fitness
49 | Q45P | -0.872 ± 0.06
50 | I1R | -0.458 ± 0.084
51 | P4F | -0.072 ± 0.065
52 | L20P | -0.899 ± 0.092
53 | R27M | -0.591 ± 0.082
54 | L34M | -0.072 ± 0.051
55 | S36M | -0.169 ± 0.05
56 | D19G | -0.196 ± 0.035
57 | A28F | 0.003 ± 0.052
58 | L34R | 0.048 ± 0.034
59 | L20W | -0.833 ± 0.09
60 | R21A | -0.192 ± 0.045
61 | L42G | -0.516 ± 0.039
62 | E49C | -0.606 ± 0.089
63 | L34A | -0.111 ± 0.03
64 | L20H | -0.752 ± 0.16
65 | E50A | -0.21 ± 0.079
66 | K32N | -0.143 ± 0.038
67 | G33N | -1.2 ± 0.3
68 | L20Y | -0.751 ± 0.11
69 | E49V | -0.906 ± 0.067
70 | V17A | -0.093 ± 0.028
71 | D11P | -0.738 ± 0.099
72 | I1K | -0.257 ± 0.082

Row | Variant | abundance fitness
73 | K47D | -0.204 ± 0.05
74 | R41G | -0.556 ± 0.041
75 | I1M | -0.123 ± 0.058
76 | Q37A | 0.004 ± 0.048
77 | S26H | 0.053 ± 0.074
78 | K13V | -0.04 ± 0.029
79 | T5Y | -0.423 ± 0.068
80 | T43D | -0.097 ± 0.058
81 | V17P | -0.182 ± 0.042
82 | T3H | -0.288 ± 0.083
83 | K35I | -0.249 ± 0.055
84 | L42F | -0.56 ± 0.073
85 | S26I | -0.012 ± 0.068
86 | E49M | -0.937 ± 0.056
87 | K9I | -0.254 ± 0.072
88 | L29R | -0.213 ± 0.031
89 | L10S | -0.577 ± 0.033
90 | S31G | 0.014 ± 0.027
91 | D11R | 0.078 ± 0.035
92 | K22R | -0.023 ± 0.03
93 | S2W | -0.083 ± 0.05
94 | K35F | -0.419 ± 0.08
95 | T3I | -0.114 ± 0.057
96 | I1L | -0.3 ± 0.085

Row | Variant | abundance fitness
97 | A28Y | 0.181 ± 0.069
98 | K16V | -0.228 ± 0.049
99 | K16H | 0.061 ± 0.076
100 | L20T | -0.727 ± 0.06
101 | S8N | -0.09 ± 0.03
102 | K35N | -0.212 ± 0.054
103 | T14D | -0.061 ± 0.037
104 | Q37E | 0.058 ± 0.051
105 | L10W | -0.953 ± 0.068
106 | L42V | -0.634 ± 0.049
107 | L10M | -0.107 ± 0.038
108 | D19T | -0.047 ± 0.03
109 | V17Y | -0.054 ± 0.068
110 | T14L | -0.131 ± 0.047
111 | S30T | -0.034 ± 0.033
112 | E25F | -0.568 ± 0.038
113 | L10P | -0.606 ± 0.059
114 | K35A | -0.341 ± 0.051
115 | L46R | -0.554 ± 0.044
116 | T5S | 0.042 ± 0.034
117 | P4I | 0.029 ± 0.075
118 | E50M | -0.641 ± 0.16
119 | K35S | -0.288 ± 0.044
120 | D11M | 0.028 ± 0.03

Row | Variant | abundance fitness
121 | K47Q | -0.196 ± 0.047
122 | K47I | -0.179 ± 0.06
123 | V17M | 0.065 ± 0.061
124 | S8G | -0.036 ± 0.04
125 | R21H | -0.199 ± 0.068
126 | R41A | -0.377 ± 0.059
127 | D19L | 0.021 ± 0.029
128 | L46Q | -0.335 ± 0.059
129 | S8I | -0.407 ± 0.063
130 | L34N | -0.157 ± 0.067
131 | K47G | -0.128 ± 0.034
132 | K9W | -0.235 ± 0.052
133 | V48W | -0.178 ± 0.05
134 | S31T | -0.052 ± 0.038
135 | E25V | -0.155 ± 0.044
136 | K44A | -0.161 ± 0.038
137 | S36E | -0.151 ± 0.047
138 | Q45T | -0.093 ± 0.031
139 | S30P | 0.036 ± 0.048
140 | I39Y | -0.279 ± 0.042
141 | L46N | -0.744 ± 0.14
142 | L10E | -0.704 ± 0.064
143 | P4V | -0.033 ± 0.033
144 | D19V | -0.167 ± 0.031

Row | Variant | abundance fitness
145 | K47C | -0.265 ± 0.058
146 | M15A | -0.543 ± 0.043
147 | P4H | -0.206 ± 0.079
148 | W7N | -0.29 ± 0.076
149 | K32S | -0.142 ± 0.042
150 | V17F | -0.071 ± 0.057
151 | R27T | -0.948 ± 0.14
152 | D19C | -0.02 ± 0.037
153 | R21F | -0.419 ± 0.042
154 | P4G | 0.1 ± 0.033
155 | T5C | -0.483 ± 0.068
156 | H6A | 0.014 ± 0.036
157 | M15E | -0.949 ± 0.11
158 | K16N | 0.033 ± 0.06
159 | L46W | -0.805 ± 0.035
160 | S8Q | -0.395 ± 0.039
161 | R27K | -0.822 ± 0.089
162 | R41S | -0.271 ± 0.035
163 | V48Y | -0.207 ± 0.082
164 | W7V | -0.157 ± 0.033
165 | K13C | -0.302 ± 0.066
166 | K13D | -0.16 ± 0.054
167 | K22G | -0.233 ± 0.038
